From PMC11387628 come the findings set out here.

The target in test [1] is GFP-WIPI2b S68D (human). As to the kind of experiment: co-IP; GFP-Trap of GFP-WIPI2b WT or mutants from lysates of transfected HEK293A or HEK293A WIPI2 KO cells (full medium or 2 h EBSS), 2 h at 4 °C; washed in TNTE wash buffer (50 mM Tris pH 7.5, 300 mM NaCl, 5 mM EDTA, 0.1% Triton-X100); endogenous ULK1, ATG13 and ATG16L1 detected by western blot.
For test [2], the target named is GFP-WIPI2b S68A (human). The test is described as above.

“endogenous ATG16L1 (from UniProt Q676U5 1-607) (natural protein)”: the percent reduction of binding compared to WIPI2b WT in test [1] was above 60%; in test [2] it was 30%.
